From patent publication US7202329 (MYRIAD GENETICS, dated 2007)

Columns and labels:
[1] = target: T1, GTPase-activating protein 1 (aa 1392-1657) (UniProt P46940 1392-1657); assay: yeast two-hybrid
T1 construct: range 1392-1657; also called IQGAP1; IQGAP
T1 sequence (looked up): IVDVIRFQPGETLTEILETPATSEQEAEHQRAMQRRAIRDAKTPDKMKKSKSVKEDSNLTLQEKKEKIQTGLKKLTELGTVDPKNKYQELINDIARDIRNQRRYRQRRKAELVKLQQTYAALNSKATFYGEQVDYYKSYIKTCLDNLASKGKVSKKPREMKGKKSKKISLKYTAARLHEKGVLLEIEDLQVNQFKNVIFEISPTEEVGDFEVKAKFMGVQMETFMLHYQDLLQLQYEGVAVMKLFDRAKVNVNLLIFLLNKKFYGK

[2] = target: T2, intersectin 1 (aa 210-633) (UniProt Q15811 210-633); assay: yeast two-hybrid
T2 construct: range 210-633
T2 sequence (looked up): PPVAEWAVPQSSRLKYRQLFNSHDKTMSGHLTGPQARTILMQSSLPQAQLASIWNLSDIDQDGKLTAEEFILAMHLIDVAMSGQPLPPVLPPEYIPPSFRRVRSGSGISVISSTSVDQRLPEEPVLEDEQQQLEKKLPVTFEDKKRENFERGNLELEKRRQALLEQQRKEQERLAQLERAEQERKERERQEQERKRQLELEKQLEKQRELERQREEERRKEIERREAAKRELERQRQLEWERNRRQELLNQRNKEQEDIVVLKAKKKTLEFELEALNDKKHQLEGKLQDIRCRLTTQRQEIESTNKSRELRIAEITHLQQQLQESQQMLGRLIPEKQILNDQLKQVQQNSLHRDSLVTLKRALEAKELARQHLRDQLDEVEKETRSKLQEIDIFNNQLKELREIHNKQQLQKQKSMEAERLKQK

[3] = target: T3, GTPase-activating protein 1 (aa 1419-1657) (UniProt P46940 1419-1657); assay: yeast two-hybrid
T3 construct: range 1419-1657; also called IQGAP1; IQGAP
T3 sequence (looked up): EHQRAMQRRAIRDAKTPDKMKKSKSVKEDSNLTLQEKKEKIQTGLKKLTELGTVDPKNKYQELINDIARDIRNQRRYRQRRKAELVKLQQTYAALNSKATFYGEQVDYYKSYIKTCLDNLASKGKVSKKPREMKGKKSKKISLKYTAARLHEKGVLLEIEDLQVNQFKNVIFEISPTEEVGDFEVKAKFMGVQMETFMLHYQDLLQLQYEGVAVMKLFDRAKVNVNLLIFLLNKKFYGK

[4] = target: T4, GTPase-activating protein 1 (aa 1299-1555) (UniProt P46940 1299-1555); assay: yeast two-hybrid
T4 construct: range 1299-1555; also called IQGAP1; IQGAP
T4 sequence (looked up): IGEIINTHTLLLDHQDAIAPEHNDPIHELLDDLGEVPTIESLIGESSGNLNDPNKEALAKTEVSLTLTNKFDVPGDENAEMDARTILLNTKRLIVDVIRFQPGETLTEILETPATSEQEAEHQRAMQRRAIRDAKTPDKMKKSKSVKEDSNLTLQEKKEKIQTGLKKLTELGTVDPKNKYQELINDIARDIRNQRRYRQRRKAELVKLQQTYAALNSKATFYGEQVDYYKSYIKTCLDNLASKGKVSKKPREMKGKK

[5] = target: T5, mitotic spindle coiled-coil related protein (aa 701-1082) (UniProt Q96R06 701-1082); assay: yeast two-hybrid
T5 construct: range 701-1082
T5 sequence (looked up): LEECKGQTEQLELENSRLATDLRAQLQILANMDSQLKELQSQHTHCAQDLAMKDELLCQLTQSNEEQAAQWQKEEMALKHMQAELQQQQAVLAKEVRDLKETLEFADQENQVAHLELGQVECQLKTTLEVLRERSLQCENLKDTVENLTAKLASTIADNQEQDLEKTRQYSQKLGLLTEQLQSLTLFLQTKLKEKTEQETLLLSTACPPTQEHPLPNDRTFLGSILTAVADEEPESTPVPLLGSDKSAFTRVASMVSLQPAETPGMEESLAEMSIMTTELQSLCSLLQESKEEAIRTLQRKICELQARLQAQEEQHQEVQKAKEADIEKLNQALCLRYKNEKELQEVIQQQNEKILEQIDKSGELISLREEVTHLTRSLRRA

pallid (aa 21-172) = target: T6, pallid (aa 21-172) (UniProt Q9UL45 21-172); assay: yeast two-hybrid
T6 construct: range 21-172
T6 sequence (looked up): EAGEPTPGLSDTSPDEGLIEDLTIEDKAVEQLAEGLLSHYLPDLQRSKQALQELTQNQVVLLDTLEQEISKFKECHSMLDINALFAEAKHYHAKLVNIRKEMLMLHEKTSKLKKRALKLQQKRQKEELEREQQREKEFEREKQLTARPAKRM

[6] = target: T7, mitotic spindle coiled-coil related protein (aa 668-895) (UniProt Q96R06 668-895); assay: yeast two-hybrid
T7 construct: range 668-895
T7 sequence (looked up): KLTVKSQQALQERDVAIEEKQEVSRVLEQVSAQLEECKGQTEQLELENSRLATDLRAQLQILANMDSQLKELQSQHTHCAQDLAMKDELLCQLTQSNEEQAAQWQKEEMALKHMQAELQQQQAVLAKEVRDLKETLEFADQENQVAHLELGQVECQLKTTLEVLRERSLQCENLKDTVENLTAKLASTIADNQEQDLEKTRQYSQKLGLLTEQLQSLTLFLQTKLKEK

[7] = target: T8, VPS28 protein (aa 27-221) (human, UniProt Q9UK41 27-221); assay: yeast two-hybrid, breast and prostate cancer library, bait Tsg101 240-391
T8 sequence (looked up): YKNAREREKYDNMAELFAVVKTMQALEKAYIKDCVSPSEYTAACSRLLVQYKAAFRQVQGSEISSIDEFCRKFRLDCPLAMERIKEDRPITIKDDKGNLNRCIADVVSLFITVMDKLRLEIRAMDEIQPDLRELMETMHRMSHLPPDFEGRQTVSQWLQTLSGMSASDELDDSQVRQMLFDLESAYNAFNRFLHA

Measured: binding result

B1: Tsg101 (aa 240-391) (other, human, UniProt Q99816 240-390, looked up)
chain: WRMKEEMDRAQAELNALKRTEEDLKKGHQKLEEMVTRLDQEVAEVDKNIELLKKKDEELSSALEKMENQSENNDIDEVIIPTAPLYKQILNLYAEENAIEDTIFYLGEALRRGVIDLDVFLKHVRLLSRKQFQLRALMQKARKTAGLSDLY
notes: range 240-391; also called C-terminal fragment of Tsg101; amino acid residues 240-390
binds: all assays above
